T1: FcγRIIa H (human, UniProt P12318 34-217)
T1 construct: extracellular domain; also called FcgRIIa H; FcγRIIa type H; not shown: His tag attached to the C terminus
T1 sequence (looked up): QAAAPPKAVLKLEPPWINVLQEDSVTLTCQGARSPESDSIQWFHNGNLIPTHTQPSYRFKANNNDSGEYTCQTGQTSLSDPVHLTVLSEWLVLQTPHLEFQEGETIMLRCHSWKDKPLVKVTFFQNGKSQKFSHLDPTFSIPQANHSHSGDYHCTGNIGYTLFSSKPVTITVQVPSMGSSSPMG

T2: FcγRIIb (human, UniProt P31994 43-217)
T2 construct: extracellular domain; also called FcgRIIb; 2b; not shown: His tag attached to the C terminus
T2 sequence (looked up): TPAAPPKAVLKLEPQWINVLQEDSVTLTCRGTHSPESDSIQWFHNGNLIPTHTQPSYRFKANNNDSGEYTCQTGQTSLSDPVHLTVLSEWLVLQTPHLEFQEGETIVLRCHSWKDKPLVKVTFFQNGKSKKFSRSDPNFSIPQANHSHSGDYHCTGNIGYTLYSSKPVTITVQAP

B1: GpH7-A5/GpH7-B3 variant G236_06M/GpL16-k0 (antibody, human IgG1, kappa)
heavy 1: not shown
heavy 2: not shown
light: DIVMTQSPLSLPVTPGEPASISCQASESLVHSNRNTYLHWYLQKPGQSPQLLIYKVSNRFSGVPDRFSGSGSGTDFTLKISRVEAEDVGVYYCSQNTHVPPTFGQGTKVEIERTVAAPSVFIFPPSDEQLKSGTASVVCLLNNFYPREAKVQWKVDNALQSGNSQESVTEQDSKDSTYSLSSTLTLSKADYEKHKVYACEVTHQGLSSPVTKSFNRGEC
notes: Heterodimerized IgG1, mutation in the GpH7-B3 chain only; also called He Ab
B2: GpH7-A5/GpH7-B3 variant L234_11K/GpL16-k0 (antibody, human IgG1, kappa)
heavy 1: not shown
heavy 2: not shown
light: DIVMTQSPLSLPVTPGEPASISCQASESLVHSNRNTYLHWYLQKPGQSPQLLIYKVSNRFSGVPDRFSGSGSGTDFTLKISRVEAEDVGVYYCSQNTHVPPTFGQGTKVEIERTVAAPSVFIFPPSDEQLKSGTASVVCLLNNFYPREAKVQWKVDNALQSGNSQESVTEQDSKDSTYSLSSTLTLSKADYEKHKVYACEVTHQGLSSPVTKSFNRGEC
notes: as for B1
B3: GpH7-A5/GpH7-B3 variant G236_15Y/GpL16-k0 (antibody, human IgG1, kappa)
heavy 1: not shown
heavy 2: not shown
light: DIVMTQSPLSLPVTPGEPASISCQASESLVHSNRNTYLHWYLQKPGQSPQLLIYKVSNRFSGVPDRFSGSGSGTDFTLKISRVEAEDVGVYYCSQNTHVPPTFGQGTKVEIERTVAAPSVFIFPPSDEQLKSGTASVVCLLNNFYPREAKVQWKVDNALQSGNSQESVTEQDSKDSTYSLSSTLTLSKADYEKHKVYACEVTHQGLSSPVTKSFNRGEC
notes: as for B1
B4: GpH7-A5/GpH7-B3 variant L234_05P/GpL16-k0 (antibody, human IgG1, kappa)
heavy 1: not shown
heavy 2: not shown
light: DIVMTQSPLSLPVTPGEPASISCQASESLVHSNRNTYLHWYLQKPGQSPQLLIYKVSNRFSGVPDRFSGSGSGTDFTLKISRVEAEDVGVYYCSQNTHVPPTFGQGTKVEIERTVAAPSVFIFPPSDEQLKSGTASVVCLLNNFYPREAKVQWKVDNALQSGNSQESVTEQDSKDSTYSLSSTLTLSKADYEKHKVYACEVTHQGLSSPVTKSFNRGEC
notes: as for B1
B5: GpH7-A5/GpH7-B3 variant G236_07I/GpL16-k0 (antibody, human IgG1, kappa)
heavy 1: not shown
heavy 2: not shown
light: DIVMTQSPLSLPVTPGEPASISCQASESLVHSNRNTYLHWYLQKPGQSPQLLIYKVSNRFSGVPDRFSGSGSGTDFTLKISRVEAEDVGVYYCSQNTHVPPTFGQGTKVEIERTVAAPSVFIFPPSDEQLKSGTASVVCLLNNFYPREAKVQWKVDNALQSGNSQESVTEQDSKDSTYSLSSTLTLSKADYEKHKVYACEVTHQGLSSPVTKSFNRGEC
notes: as for B1
B6: GpH7-A5/GpH7-B3 variant L234_12R/GpL16-k0 (antibody, human IgG1, kappa)
heavy 1: not shown
heavy 2: not shown
light: DIVMTQSPLSLPVTPGEPASISCQASESLVHSNRNTYLHWYLQKPGQSPQLLIYKVSNRFSGVPDRFSGSGSGTDFTLKISRVEAEDVGVYYCSQNTHVPPTFGQGTKVEIERTVAAPSVFIFPPSDEQLKSGTASVVCLLNNFYPREAKVQWKVDNALQSGNSQESVTEQDSKDSTYSLSSTLTLSKADYEKHKVYACEVTHQGLSSPVTKSFNRGEC
notes: as for B1
B7: GpH7-A5/GpH7-B3 variant G236_12R/GpL16-k0 (antibody, human IgG1, kappa)
heavy 1: not shown
heavy 2: not shown
light: DIVMTQSPLSLPVTPGEPASISCQASESLVHSNRNTYLHWYLQKPGQSPQLLIYKVSNRFSGVPDRFSGSGSGTDFTLKISRVEAEDVGVYYCSQNTHVPPTFGQGTKVEIERTVAAPSVFIFPPSDEQLKSGTASVVCLLNNFYPREAKVQWKVDNALQSGNSQESVTEQDSKDSTYSLSSTLTLSKADYEKHKVYACEVTHQGLSSPVTKSFNRGEC
notes: as for B1
B8: GpH7-A5/GpH7-B3 variant G236_19Q/GpL16-k0 (antibody, human IgG1, kappa)
heavy 1: not shown
heavy 2: not shown
light: DIVMTQSPLSLPVTPGEPASISCQASESLVHSNRNTYLHWYLQKPGQSPQLLIYKVSNRFSGVPDRFSGSGSGTDFTLKISRVEAEDVGVYYCSQNTHVPPTFGQGTKVEIERTVAAPSVFIFPPSDEQLKSGTASVVCLLNNFYPREAKVQWKVDNALQSGNSQESVTEQDSKDSTYSLSSTLTLSKADYEKHKVYACEVTHQGLSSPVTKSFNRGEC
notes: as for B1
B9: GpH7-A5/GpH7-B3 variant L234_01G/GpL16-k0 (antibody, human IgG1, kappa)
heavy 1: not shown
heavy 2: not shown
light: DIVMTQSPLSLPVTPGEPASISCQASESLVHSNRNTYLHWYLQKPGQSPQLLIYKVSNRFSGVPDRFSGSGSGTDFTLKISRVEAEDVGVYYCSQNTHVPPTFGQGTKVEIERTVAAPSVFIFPPSDEQLKSGTASVVCLLNNFYPREAKVQWKVDNALQSGNSQESVTEQDSKDSTYSLSSTLTLSKADYEKHKVYACEVTHQGLSSPVTKSFNRGEC
notes: as for B1
B10: GpH7-A5/GpH7-B3 variant G236_08L/GpL16-k0 (antibody, human IgG1, kappa)
heavy 1: not shown
heavy 2: not shown
light: DIVMTQSPLSLPVTPGEPASISCQASESLVHSNRNTYLHWYLQKPGQSPQLLIYKVSNRFSGVPDRFSGSGSGTDFTLKISRVEAEDVGVYYCSQNTHVPPTFGQGTKVEIERTVAAPSVFIFPPSDEQLKSGTASVVCLLNNFYPREAKVQWKVDNALQSGNSQESVTEQDSKDSTYSLSSTLTLSKADYEKHKVYACEVTHQGLSSPVTKSFNRGEC
notes: as for B1
B11: GpH7-A5/GpH7-B3 variant L234_02A/GpL16-k0 (antibody, human IgG1, kappa)
heavy 1: not shown
heavy 2: not shown
light: DIVMTQSPLSLPVTPGEPASISCQASESLVHSNRNTYLHWYLQKPGQSPQLLIYKVSNRFSGVPDRFSGSGSGTDFTLKISRVEAEDVGVYYCSQNTHVPPTFGQGTKVEIERTVAAPSVFIFPPSDEQLKSGTASVVCLLNNFYPREAKVQWKVDNALQSGNSQESVTEQDSKDSTYSLSSTLTLSKADYEKHKVYACEVTHQGLSSPVTKSFNRGEC
notes: as for B1
B12: GpH7-A5/GpH7-B3 variant L234_04F/GpL16-k0 (antibody, human IgG1, kappa)
heavy 1: not shown
heavy 2: not shown
light: DIVMTQSPLSLPVTPGEPASISCQASESLVHSNRNTYLHWYLQKPGQSPQLLIYKVSNRFSGVPDRFSGSGSGTDFTLKISRVEAEDVGVYYCSQNTHVPPTFGQGTKVEIERTVAAPSVFIFPPSDEQLKSGTASVVCLLNNFYPREAKVQWKVDNALQSGNSQESVTEQDSKDSTYSLSSTLTLSKADYEKHKVYACEVTHQGLSSPVTKSFNRGEC
notes: as for B1
B13: GpH7-A5/GpH7-B3 variant G236_20W/GpL16-k0 (antibody, human IgG1, kappa)
heavy 1: not shown
heavy 2: not shown
light: DIVMTQSPLSLPVTPGEPASISCQASESLVHSNRNTYLHWYLQKPGQSPQLLIYKVSNRFSGVPDRFSGSGSGTDFTLKISRVEAEDVGVYYCSQNTHVPPTFGQGTKVEIERTVAAPSVFIFPPSDEQLKSGTASVVCLLNNFYPREAKVQWKVDNALQSGNSQESVTEQDSKDSTYSLSSTLTLSKADYEKHKVYACEVTHQGLSSPVTKSFNRGEC
notes: as for B1
B14: GpH7-A5/GpH7-B3 variant G236_16H/GpL16-k0 (antibody, human IgG1, kappa)
heavy 1: not shown
heavy 2: not shown
light: DIVMTQSPLSLPVTPGEPASISCQASESLVHSNRNTYLHWYLQKPGQSPQLLIYKVSNRFSGVPDRFSGSGSGTDFTLKISRVEAEDVGVYYCSQNTHVPPTFGQGTKVEIERTVAAPSVFIFPPSDEQLKSGTASVVCLLNNFYPREAKVQWKVDNALQSGNSQESVTEQDSKDSTYSLSSTLTLSKADYEKHKVYACEVTHQGLSSPVTKSFNRGEC
notes: as for B1
B15: GpH7-A5/GpH7-B3 variant G236_13S/GpL16-k0 (antibody, human IgG1, kappa)
heavy 1: not shown
heavy 2: not shown
light: DIVMTQSPLSLPVTPGEPASISCQASESLVHSNRNTYLHWYLQKPGQSPQLLIYKVSNRFSGVPDRFSGSGSGTDFTLKISRVEAEDVGVYYCSQNTHVPPTFGQGTKVEIERTVAAPSVFIFPPSDEQLKSGTASVVCLLNNFYPREAKVQWKVDNALQSGNSQESVTEQDSKDSTYSLSSTLTLSKADYEKHKVYACEVTHQGLSSPVTKSFNRGEC
notes: as for B1
B16: GpH7-A5/GpH7-B3 variant G236_14T/GpL16-k0 (antibody, human IgG1, kappa)
heavy 1: not shown
heavy 2: not shown
light: DIVMTQSPLSLPVTPGEPASISCQASESLVHSNRNTYLHWYLQKPGQSPQLLIYKVSNRFSGVPDRFSGSGSGTDFTLKISRVEAEDVGVYYCSQNTHVPPTFGQGTKVEIERTVAAPSVFIFPPSDEQLKSGTASVVCLLNNFYPREAKVQWKVDNALQSGNSQESVTEQDSKDSTYSLSSTLTLSKADYEKHKVYACEVTHQGLSSPVTKSFNRGEC
notes: as for B1

Assays:
[1] = target: T1, FcγRIIa H; experiment: ratio of He/Con_2aH to He/Con_2b (relative SPR binding to FcγRIIa H over FcγRIIb)
[2] = target: T1, FcγRIIa H; experiment: SPR (Biacore), antibody captured, FcγR as analyte; binding relative to GpH7-A5/GpH7-B3/GpL16-k0 = 100
[3] = target: T2, FcγRIIb; experiment: as above

Binder | He_2aH/2b (IIaH/IIb) [1] | He/Con_2aH [2] [control = 100] | He/Con_2b [3] [control = 100]
B1 | 1.88 | 85.7 | 45.5
B2 | 2.52 | 40.8 | 16.2
B3 | 3.45 | 136 | 39.5
B4 | 1.28 | 93.5 | 72.9
B5 | 3.72 | 115 | 31
B6 | 2.53 | 47.7 | 18.9
B7 | 5.04 | 34.2 | 6.8
B8 | 1.91 | 89.1 | 46.6
B9 | 1.49 | 75.6 | 50.7
B10 | 2.83 | 75.8 | 26.8
B11 | 1.25 | 81 | 64.9
B12 | 1.2 | 120 | 99.8
B13 | 2.52 | 147 | 58.2
B14 | 3.51 | 98.2 | 27.9
B15 | 1.39 | 135 | 96.7
B16 | 1.79 | 103 | 57.8

Source: patent US20180155451A1 (published 2018)
